± gives the standard deviation of the averaged measurements.
Test system: ATP
Test: switch fluorescence ratio, 500 uM ATP over buffer (Cy3 cluster intensity, sum of 5 cycles each) (fold (ratio)); higher = stronger signal-on switching upon ATP binding; sequences stand for … in TCGTCGGCAGCGTCAGATGTGTATAAGAGACAGTTTTTTTTTTTTTTTTTTTTTTTTT…TC
Settings: aptamer strand: ATP DNA aptamer (quencher-CACCTGGGGGAGTATTGCGGAGGAAGG + anchor), 100 nM annealed; ATP concentration: 500 uM
In short: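 The quencher-labelled ATP aptamer, at 100 nM, was annealed to Cy3-labelled switching-strand clusters on a modified Illumina MiSeq flow-cell. The clusters were imaged in selection buffer, then after 15 min with 500 uM ATP at 22 °C, and this buffer/ATP cycle ran five times with NaOH stripping and re-annealing between runs. Per-cluster fluorescence ratios, summed target-cycle over summed buffer-cycle Cy3 intensity, were averaged per switch-domain sequence. Clusters outside 100-1000 RFU were excluded.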
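Note: ATP exposure 15 min at 22 °C before imaging.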

Sequence | switch fluorescence ratio
GTTTATAAAG | 0.9899 ± 0.0023
TTGCACGGGT | 1.01 ± 0.02
TAGGGGAGTT | 0.978 ± 0.04
CCATCTGCGC | 1.82 ± 0.074
ACTGTGGGGT | 0.996 ± 0.022
ACACTATCAC | 1.21 ± 0.049
GCTCTACGGT | 1.013 ± 0.0099
TGTGTCAGGT | 0.997 ± 0.05
CCCTTAGTGT | 1.04 ± 0.031
ACTGTTGGGG | 0.999 ± 0.02
GTCAGGGGTG | 1.04 ± 0.052
TTACAATCAA | 0.999 ± 0.047
CGTGACCGCC | 1.08 ± 0.028
GAATGTGGGC | 0.955 ± 0.028
GATGATCACA | 0.951 ± 0.036
GTAATATGCG | 0.987 ± 0.018
AATGAGTGGG | 1 ± 0.041
GGTACTAATA | 1.023 ± 0.007
GCGCTGTTGG | 0.9996 ± 0.0035
GAACGGCTAG | 1.02 ± 0.011
TTCCAATGTG | 1.01 ± 0.029
GAATTGAGGG | 0.97 ± 0.054
GGTATAGAGC | 1.02 ± 0.05

Sequence | switch fluorescence ratio
GGGGCAGGAG | 1.01 ± 0.06
CAATAGTGTG | 0.973 ± 0.017
TAATCTGCTG | 1.01 ± 0.02
TCCGGGGGGT | 1.05 ± 0.025
CGGTAGGAAC | 1.01 ± 0.028
TTAAAGGCAG | 0.989 ± 0.025
ATTAGCACGG | 0.997 ± 0.013
GCATTGACGG | 1.03 ± 0.02
TTGGCCGGG | 0.9643 ± 0.009
TTTATTCGTT | 0.9784 ± 0.0063
GAGGGTGTGT | 0.979 ± 0.038
ATATTTTATT | 1.02 ± 0.031
TAGGGGTCGT | 1 ± 0.02
GGGGAGCGTC | 1.01 ± 0.032
GATATCATTT | 1.03 ± 0.022
GGGTTATCAC | 0.984 ± 0.0095
TGATTTTACG | 0.983 ± 0.019
GTATTTAGGG | 1.03 ± 0.039
GGGTTTTTAT | 0.989 ± 0.027
GTGGGTCCTA | 0.9891 ± 0.0013
GAAATTGCGG | 0.989 ± 0.024
TTCGGCGGTA | 0.995 ± 0.011
GAAGAATTAT | 1.011 ± 0.0007

Sequence | switch fluorescence ratio
CCGTTGGGGC | 1.12 ± 0.059
TTGTTCTGGA | 0.977 ± 0.056
TTCGCGGGGG | 0.979 ± 0.011
CCGTTGGACT | 1.24 ± 0.067
TTGAGTTGCG | 0.986 ± 0.028
GGGCTTGGTA | 1 ± 0.014
GTTTCTGTGT | 0.956 ± 0.012
AGAGTACGTA | 1.041 ± 0.0065
ATTGTTTGCA | 1.02 ± 0.056
GGACTTTGGC | 0.983 ± 0.042
TTAAAAACAT | 1.024 ± 0.0014
CAGGGGGGCT | 1.04 ± 0.057
ATCGATCGTT | 0.9986 ± 0.0027
AAGTTGAATA | 0.985 ± 0.021
GCTATATGTA | 1 ± 0.031
ATCCTGTAGT | 0.999 ± 0.044
CACGAGCGTT | 1.011 ± 0.0049
CTGGCATTTT | 0.9936 ± 0.0054
GTCGGACCCG | 0.973 ± 0.019
TTAAAAGATT | 0.99 ± 0.075
GCTTTCGATC | 1.05 ± 0.033
TGATGCATCG | 1 ± 0.034
ATTGCCGTCA | 0.998 ± 0.024

Sequence | switch fluorescence ratio
AAAGGTTGGT | 1.011 ± 0.0037
CAGGGATGGG | 0.961 ± 0.023
ACACAACTGT | 1.14 ± 0.077
TTGGGCGTCG | 0.995 ± 0.047
TTAAACCTAA | 1.02 ± 0.052
AATCGGTTCT | 0.979 ± 0.05
TGTAAAAAGG | 0.98 ± 0.025
ATCATGTGGC | 0.989 ± 0.025
TTGTGTGTGT | 0.993 ± 0.019
GTGGTGGCTG | 0.976 ± 0.048
TTGCTGTTGG | 1.03 ± 0.033
ATTGTGGGTC | 1.04 ± 0.02
AGTGATAGAT | 0.967 ± 0.023
TTGTGTGCAG | 0.959 ± 0.053
CTTAGGAGGT | 0.987 ± 0.025
ACGATTTTTT | 0.993 ± 0.013
CAGTGTAGTC | 1.02 ± 0.057
TGGGGGGCCA | 1 ± 0.027
AAAGTGGGAT | 1.03 ± 0.019
TTTTGGCTAT | 1.017 ± 0.0015
TCTGGGCTTT | 1.07 ± 0.1
GGGCCAGGGG | 1.21 ± 0.067
AGGAGTGTTC | 1.01 ± 0.084

Sequence | switch fluorescence ratio
TAGAAGGGAA | 1.03 ± 0.063
ACTGGGCCGT | 1.01 ± 0.046
TATAATGTGG | 0.967 ± 0.015
TGCACCCGTA | 1.054 ± 0.0013
AGTAGCAGCG | 0.963 ± 0.04
GGGCATAGTT | 0.97 ± 0.018
GGGCCAAGGG | 1.01 ± 0.022
AGTCATCTGC | 1 ± 0.013
CGCTTAAAAA | 1.02 ± 0.079
TTGCTTTTAT | 0.991 ± 0.024
GCTGGGTAAT | 1.02 ± 0.044
TTTTGGTGCT | 1.01 ± 0.03
GACGGGTTGG | 0.992 ± 0.045
TTGGATGGGG | 0.972 ± 0.017
GGGGTGTTAT | 0.955 ± 0.037
AGGGGGGTG | 1 ± 0.039
TAAGGACATT | 1.03 ± 0.015
CGTTTTGAGG | 0.96 ± 0.034
AAATATTTCG | 1.02 ± 0.03
GGTTGGGCTT | 0.979 ± 0.012
ATCCGTTGCT | 1.01 ± 0.048
TGGTTAACGC | 0.999 ± 0.013
GGATGGTTCA | 1.05 ± 0.072

Sequence | switch fluorescence ratio
AGTAGGGGAG | 1.01 ± 0.028
TGGGGATTTC | 1.1 ± 0.16
GCTGGGGGGC | 0.988 ± 0.033
ATGGAAAGTG | 0.9599 ± 0.0071
TTGTGTCAGT | 0.9885 ± 0.0045
AACCGCGGTG | 0.984 ± 0.011
AAGTTGTAAT | 1.014 ± 0.0013
AGGGGTAACG | 0.9807 ± 0.0098
ACGAGGGGAG | 1.02 ± 0.016
CAGCAAATGG | 1.47 ± 0.26
TTCATCGTTT | 0.968 ± 0.011
TGATACGGAG | 0.983 ± 0.06
ATCGGGGGGC | 1 ± 0.055
GTGTGCCAGC | 0.969 ± 0.013
TAAGGATGTA | 1 ± 0.033
TCGTTTAGGT | 0.977 ± 0.026
TCGGACTTTA | 0.998 ± 0.042
AGACGAGTCT | 0.974 ± 0.03
AAGGGTTGGT | 0.991 ± 0.028
ATTAATTTTA | 1.02 ± 0.041
GAATAAAGGT | 0.979 ± 0.02
TACTACCTGG | 1.3 ± 0.25
TGTTTTATAT | 1.01 ± 0.021

Sequence | switch fluorescence ratio
TATATTGGAT | 0.985 ± 0.025
TTGGCTACTG | 0.962 ± 0.065
GGGGGAGGTG | 1.03 ± 0.048
ATCAATATAG | 1.03 ± 0.018
CTAGTTTGGT | 1.008 ± 0.0049
AACCTACGGC | 1.38 ± 0.083
TTGATGGTTG | 0.964 ± 0.021
TTACGGGGTG | 1.02 ± 0.019
GCATAAGGGG | 0.992 ± 0.018
ATGTGTTGGG | 0.973 ± 0.032
GGTCGGCTAG | 0.9954 ± 0.0083
TTACATCGGA | 0.982 ± 0.03
GCGTTGGG | 1.02 ± 0.029
ACAGGGGGGT | 1.17 ± 0.24
GAGGGGTAGC | 0.988 ± 0.016
TAACATTTAT | 0.979 ± 0.027
CGGTTAGGGG | 0.9829 ± 0.0021
CGGGCTATCC | 1.03 ± 0.03
TTAACACGTA | 1.2 ± 0.024
